The source of these data is patent publication US12698507B2, “Methods and compositions for conferring and/or enhancing herbicide tolerance using protoporphyrinogen IX oxidase of various cyanobacteria or variant thereof” (FarmHannong Co., Ltd., priority 2019, dated 2026).

The subject of the experiment is PPO-deficient BT3 E. coli (ΔPPO). Briefly: PPO-inhibiting herbicide tolerance test of PPO variants in E. coli (growth on herbicide-containing LB agar). It counts as cell-based. The following applies: CyPPO19 variants in BT3 (ΔPPO) E. coli; LB agar with 0 to 2,000 μM herbicide, 37° C., dark, 16-20 hours. An excerpt: To enhance the PPO-inhibiting herbicide resistance of CyPPO19 and CyPPO18, PPO variant genes of the above example 2 were constructed. They were transformed to BT3 (ΔPPO) strain which is deficient of PPO activity and cultured in LB media with PPO-inhibiting herbicide, thereby examining whether growth of transformed BT3 was not inhibited.
BT3 competent cells were transformed with the pET303-CyPPO19 (wild type), pET303-CyPPO18 (wild type) plasmids, and those with a mutation(s) constructed (refer to example 2) via heat shock method, and were cultured in LB agar media containing ampicillin.
Single colony transformed with each CyPPO gene was cultured in 3 mL of LB broth (LPSS) containing ampicillin for more than 12 hours, and then was subcultured in LB broth until absorbance (OD600) reached 0.5 to 1. Then, it was diluted with LB broth to OD600=0.5. Again, the diluted solution was serially diluted 4 times by a factor of one tenth.
The LB agar media (LB 25 g/L, Bacto agar 12 g/L) containing ampicillin (100 μg/mL) and 0 to 2,000 μM of various herbicides were prepared. Herbicide solution stocks were all prepared in DMSO.
Then, 10 μL of each diluted solution of E. coli was dropped on the plate and cultured at 37° C. under dark for 16-20 hours. PPO-inhibiting herbicide resistance was evaluated with the extent of E. coli growth containing each gene was observed.
The extent of herbicide resistance was evaluated by the relative growth of variants to that of wild type, and listed in Tables 9 and 10 and FIGS. 3 to 32.
In Tables 9 and 10, the tolerance level of variants showing equivalent resistance to wild type was presented as ‘−’, and was done as ‘+’ per each 10-fold resistance until ‘+++++’ as maximal resistance.
FIGS. 3 to 30 and FIGS. 31 and 32 show the transformed E. coli growth result of CyPPO19 WT and its variants and CyPPO18 WT and its variants, respectively. The concentrations of herbicides were written above the photographs of tolerance test. A 10-fold dilution series of spots were shown from OD600=0.5 of the leftmost spot to OD600=0.00005 of the rightmost one.

B1: CyPPO19 V165C + L327T + F360I: variant of CyPPO19 PPO protein (SEQ ID NO: 1) (protein)
chain: MSEVDVAIVGGGLSGLSLAWRLQQSAPQYSVVLLEASDRLGGNITTQTAEGFVWELGPNSFAPTPALLQLIAEVGLQSELIRGDRHLPRYIYWRGQLYPLQPTRPLALATSNLLSPWGKVRAALGALGFVPPYLGSGDESVNSFFRRHLGQEVAERLVAPFVSGCYAGDPQQLSAAAAFRRIAQLEKLGGGLIAGALHLRRQQAPKPKPPTSVQMRPGELGSFKEGLAALPRAIAQQLKAPIHLQTPVQEITPDPKGGYLLRSGEQTWRARSVVLATPAYQTAELVAPFQPAIARVLATIPYPTVACVVLAYPAGLGRSVRPGFGVTIPRSQGIRTLGTIWSSCLFPQRTPAGWQVFTSIIGGATDPDLASLSEEAIVQQVQQDLNRLLDLPAAKARLLGMKVWRRAIPQYMVGYPEQWQQVTHALSQTPGLFLCSNYAEGVALGDRVEHGNRTAAAVAAYLSGGQP
modifications: Synthetic_PPO of Thermosynechococcus elongatus PKUAC-SCTE542 (comprising GenBank No. CP032152.1)
For the molecule B1, the “tolerance level relative to wild type, Carfentrazone” value is listed as “+ (‘+’ per each 10-fold resistance)”; the “tolerance level relative to wild type, Flumioxazin” value is on record as “+++++ (until ‘+++++’ as maximal resistance)”; the “tolerance level relative to wild type, Fomesafen” value is given as “++ (‘+’ per each 10-fold resistance)”; the “tolerance level relative to wild type, Oxyfluorfen” value is “+++ (‘+’ per each 10-fold resistance)”. For the same molecule, the “tolerance level relative to wild type, Saflufenacil” value is recorded as “++++ (‘+’ per each 10-fold resistance)”; the “tolerance level relative to wild type, Sulfentrazone” value is recorded as “+++++ (until ‘+++++’ as maximal resistance)”; the “tolerance level relative to wild type, Tiafenacil” value is reported as “+++++ (until ‘+++++’ as maximal resistance)”.

B2: CyPPO19 V165C + I408W + F360T: variant of CyPPO19 PPO protein (SEQ ID NO: 1) (protein)
chain: MSEVDVAIVGGGLSGLSLAWRLQQSAPQYSVVLLEASDRLGGNITTQTAEGFVWELGPNSFAPTPALLQLIAEVGLQSELIRGDRHLPRYIYWRGQLYPLQPTRPLALATSNLLSPWGKVRAALGALGFVPPYLGSGDESVNSFFRRHLGQEVAERLVAPFVSGCYAGDPQQLSAAAAFRRIAQLEKLGGGLIAGALHLRRQQAPKPKPPTSVQMRPGELGSFKEGLAALPRAIAQQLKAPIHLQTPVQEITPDPKGGYLLRSGEQTWRARSVVLATPAYQTAELVAPFQPAIARVLATIPYPTVACVVLAYPAGLGRSVRPGFGVLIPRSQGIRTLGTIWSSCLFPQRTPAGWQVFTSTIGGATDPDLASLSEEAIVQQVQQDLNRLLDLPAAKARLLGMKVWRRAWPQYMVGYPEQWQQVTHALSQTPGLFLCSNYAEGVALGDRVEHGNRTAAAVAAYLSGGQP
modifications: Synthetic_PPO of Thermosynechococcus elongatus PKUAC-SCTE542 (comprising GenBank No. CP032152.1)
For B2, the “tolerance level relative to wild type, Carfentrazone” value is listed as “+ (‘+’ per each 10-fold resistance)”; the “tolerance level relative to wild type, Flumioxazin” value is reported as “++++ (‘+’ per each 10-fold resistance)”; the “tolerance level relative to wild type, Fomesafen” value was “+ (‘+’ per each 10-fold resistance)”; the “tolerance level relative to wild type, Oxyfluorfen” value was “++ (‘+’ per each 10-fold resistance)”. For the same molecule, the “tolerance level relative to wild type, Saflufenacil” value is reported as “++++ (‘+’ per each 10-fold resistance)”; the “tolerance level relative to wild type, Sulfentrazone” value is on record as “+++ (‘+’ per each 10-fold resistance)”; the “tolerance level relative to wild type, Tiafenacil” value is recorded as “++++ (‘+’ per each 10-fold resistance)”.

B3: CyPPO19 V165C + I408W + F360V: variant of CyPPO19 PPO protein (SEQ ID NO: 1) (protein)
chain: MSEVDVAIVGGGLSGLSLAWRLQQSAPQYSVVLLEASDRLGGNITTQTAEGFVWELGPNSFAPTPALLQLIAEVGLQSELIRGDRHLPRYIYWRGQLYPLQPTRPLALATSNLLSPWGKVRAALGALGFVPPYLGSGDESVNSFFRRHLGQEVAERLVAPFVSGCYAGDPQQLSAAAAFRRIAQLEKLGGGLIAGALHLRRQQAPKPKPPTSVQMRPGELGSFKEGLAALPRAIAQQLKAPIHLQTPVQEITPDPKGGYLLRSGEQTWRARSVVLATPAYQTAELVAPFQPAIARVLATIPYPTVACVVLAYPAGLGRSVRPGFGVLIPRSQGIRTLGTIWSSCLFPQRTPAGWQVFTSVIGGATDPDLASLSEEAIVQQVQQDLNRLLDLPAAKARLLGMKVWRRAWPQYMVGYPEQWQQVTHALSQTPGLFLCSNYAEGVALGDRVEHGNRTAAAVAAYLSGGQP
modifications: Synthetic_PPO of Thermosynechococcus elongatus PKUAC-SCTE542 (comprising GenBank No. CP032152.1)
Consider B3, for which the “tolerance level relative to wild type, Carfentrazone” value is “+ (‘+’ per each 10-fold resistance)”; the “tolerance level relative to wild type, Flumioxazin” value is reported as “++++ (‘+’ per each 10-fold resistance)”; the “tolerance level relative to wild type, Fomesafen” value is reported as “+++ (‘+’ per each 10-fold resistance)”; the “tolerance level relative to wild type, Oxyfluorfen” value is “++++ (‘+’ per each 10-fold resistance)”. Besides, the “tolerance level relative to wild type, Saflufenacil” value is recorded as “++++ (‘+’ per each 10-fold resistance)”; the “tolerance level relative to wild type, Sulfentrazone” value was “+++ (‘+’ per each 10-fold resistance)”; the “tolerance level relative to wild type, Tiafenacil” value is given as “++++ (‘+’ per each 10-fold resistance)”.

B4: CyPPO19 V165S + L327T + F360T: variant of CyPPO19 PPO protein (SEQ ID NO: 1) (protein)
chain: MSEVDVAIVGGGLSGLSLAWRLQQSAPQYSVVLLEASDRLGGNITTQTAEGFVWELGPNSFAPTPALLQLIAEVGLQSELIRGDRHLPRYIYWRGQLYPLQPTRPLALATSNLLSPWGKVRAALGALGFVPPYLGSGDESVNSFFRRHLGQEVAERLVAPFVSGSYAGDPQQLSAAAAFRRIAQLEKLGGGLIAGALHLRRQQAPKPKPPTSVQMRPGELGSFKEGLAALPRAIAQQLKAPIHLQTPVQEITPDPKGGYLLRSGEQTWRARSVVLATPAYQTAELVAPFQPAIARVLATIPYPTVACVVLAYPAGLGRSVRPGFGVTIPRSQGIRTLGTIWSSCLFPQRTPAGWQVFTSTIGGATDPDLASLSEEAIVQQVQQDLNRLLDLPAAKARLLGMKVWRRAIPQYMVGYPEQWQQVTHALSQTPGLFLCSNYAEGVALGDRVEHGNRTAAAVAAYLSGGQP
modifications: Synthetic_PPO of Thermosynechococcus elongatus PKUAC-SCTE542 (comprising GenBank No. CP032152.1)
B4: the “tolerance level relative to wild type, Carfentrazone” value is reported as “+ (‘+’ per each 10-fold resistance)”; the “tolerance level relative to wild type, Flumioxazin” value is recorded as “+++++ (until ‘+++++’ as maximal resistance)”; the “tolerance level relative to wild type, Fomesafen” value is reported as “+++ (‘+’ per each 10-fold resistance)”; the “tolerance level relative to wild type, Oxyfluorfen” value is listed as “++ (‘+’ per each 10-fold resistance)”. The “tolerance level relative to wild type, Saflufenacil” value was “++++ (‘+’ per each 10-fold resistance)”; the “tolerance level relative to wild type, Sulfentrazone” value is on record as “+++ (‘+’ per each 10-fold resistance)”; the “tolerance level relative to wild type, Tiafenacil” value is on record as “++++ (‘+’ per each 10-fold resistance)”.

B5: CyPPO19 V165C + L327T + F360V: variant of CyPPO19 PPO protein (SEQ ID NO: 1) (protein)
chain: MSEVDVAIVGGGLSGLSLAWRLQQSAPQYSVVLLEASDRLGGNITTQTAEGFVWELGPNSFAPTPALLQLIAEVGLQSELIRGDRHLPRYIYWRGQLYPLQPTRPLALATSNLLSPWGKVRAALGALGFVPPYLGSGDESVNSFFRRHLGQEVAERLVAPFVSGCYAGDPQQLSAAAAFRRIAQLEKLGGGLIAGALHLRRQQAPKPKPPTSVQMRPGELGSFKEGLAALPRAIAQQLKAPIHLQTPVQEITPDPKGGYLLRSGEQTWRARSVVLATPAYQTAELVAPFQPAIARVLATIPYPTVACVVLAYPAGLGRSVRPGFGVTIPRSQGIRTLGTIWSSCLFPQRTPAGWQVFTSVIGGATDPDLASLSEEAIVQQVQQDLNRLLDLPAAKARLLGMKVWRRAIPQYMVGYPEQWQQVTHALSQTPGLFLCSNYAEGVALGDRVEHGNRTAAAVAAYLSGGQP
modifications: Synthetic_PPO of Thermosynechococcus elongatus PKUAC-SCTE542 (comprising GenBank No. CP032152.1)
Take B5: the “tolerance level relative to wild type, Carfentrazone” value is recorded as “+ (‘+’ per each 10-fold resistance)”; the “tolerance level relative to wild type, Flumioxazin” value is given as “+++++ (until ‘+++++’ as maximal resistance)”; the “tolerance level relative to wild type, Fomesafen” value is listed as “+ (‘+’ per each 10-fold resistance)”; the “tolerance level relative to wild type, Oxyfluorfen” value is on record as “+++ (‘+’ per each 10-fold resistance)”. For the same molecule, the “tolerance level relative to wild type, Saflufenacil” value was “++++ (‘+’ per each 10-fold resistance)”; the “tolerance level relative to wild type, Sulfentrazone” value was “+++++ (until ‘+++++’ as maximal resistance)”; the “tolerance level relative to wild type, Tiafenacil” value is “+++++ (until ‘+++++’ as maximal resistance)”.
